# Residue numbers refer to the chain shown, from its start.
# T1: Human CXCR2 (human, UniProt P25025 1-360)
# T1 sequence: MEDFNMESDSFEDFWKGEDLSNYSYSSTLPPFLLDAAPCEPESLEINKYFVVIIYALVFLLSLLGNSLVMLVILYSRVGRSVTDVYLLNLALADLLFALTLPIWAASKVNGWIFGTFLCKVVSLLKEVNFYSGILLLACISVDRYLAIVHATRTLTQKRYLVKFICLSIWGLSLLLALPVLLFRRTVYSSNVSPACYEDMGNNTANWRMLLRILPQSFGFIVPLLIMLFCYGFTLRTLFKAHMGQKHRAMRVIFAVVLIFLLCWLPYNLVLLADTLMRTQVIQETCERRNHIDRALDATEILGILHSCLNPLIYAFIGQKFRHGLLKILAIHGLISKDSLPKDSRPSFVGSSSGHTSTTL
# T2: Cynomolgus CXCR2 (cynomolgus, UniProt Q28519 3-353 (rhesus entry))
# T2 chain: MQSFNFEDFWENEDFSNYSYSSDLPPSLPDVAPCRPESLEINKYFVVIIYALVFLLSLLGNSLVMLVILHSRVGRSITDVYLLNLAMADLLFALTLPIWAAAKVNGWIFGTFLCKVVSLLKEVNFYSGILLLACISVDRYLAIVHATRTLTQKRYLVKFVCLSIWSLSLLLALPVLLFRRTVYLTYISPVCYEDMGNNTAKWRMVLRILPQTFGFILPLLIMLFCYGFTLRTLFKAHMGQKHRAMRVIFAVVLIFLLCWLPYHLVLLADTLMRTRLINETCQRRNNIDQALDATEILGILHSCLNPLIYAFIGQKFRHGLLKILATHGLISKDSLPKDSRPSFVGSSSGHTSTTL
# B1: CXCR20014 (bispecific antibody)
# chain: EVQLVESGGGLVQPGGSLRLSCVASGSIVRINTMGWYRQTPGKQRELVADITSGGNINYIDAVKGRFTISRDNTKNTVYLQMNSLKPEDTAVYYCNAEIVVLVGVWTQRARTGNYWGQGTQVTVSSGGGGSGGGGSGGGGSGGGGSGGGGSGGGGSGGGGSEVQLVESGGELVQPGGSLRLSCAASGSILTINAMGWYRQAPGKQRELVVRRTRGGSTTYQDSVKGRFTISADIAKKTMYLQMNSLKPEDTAVYYCMLDDRGGVYWGQGTQVTVSS
# notes: Biparatopic: two VHH joined by a GlySer linker; also called 97A9-35GS-2B2; 97A9-2B2; not shown: C-terminal c-myc tag and His6 tag coded by pAX100
# B2: CXCR20026 (bispecific antibody)
# chain: EVQLVESGGGLVQPGGSLRLSCVASGRIFSSNAMGWFRQAPGKEREFVAAITWRSGGSAYYADSAKGRFTISRDNAKNTVYLQMNSLKPEDTAVYYCAAGGSSWLSFPPDYWGQGTQVTVSSGGGGSGGGGSGGGGSGGGGSGGGGSGGGGSGGGGSEVQLVESGGGLVQAGESLRLSCAASGSTFDFKVMGWYRQPPGKQREGVAAIRLSGNMHYAESVKGRFTISKANAKNTVYLQMNSLRPEDTAVYYCKVNIRGQDYWGQGTQVTVSS
# notes: Biparatopic: two VHH joined by a GlySer linker; also called 163E3-35GS-127D1; 163E3-127D1; not shown: C-terminal c-myc tag and His6 tag coded by pAX100
# B3: CXCR20034 (bispecific antibody)
# chain: EVQLVESGGGLVQAGGSLRLSCAASGRTFSDYAMGWFRQAPGKEREFVAAITWNGGRVFYTASVKGRFTISRDNAKNTMYLQMNSLKPEDTAVYYCAADKDRRTDYLGHPVAYWGQGTQVTVSSGGGGSGGGGSGGGGSGGGGSGGGGSGGGGSGGGGSEVQLVESGGELVQPGGSLRLSCAASGSILTINAMGWYRQAPGKQRELVVRRTRGGSTTYQDSVKGRFTISADIAKKTMYLQMNSLKPEDTAVYYCMLDDRGGVYWGQGTQVTVSS
# notes: Biparatopic: two VHH joined by a GlySer linker; also called 163D2-35GS-2B2; 163D2-2B2; not shown: C-terminal c-myc tag and His6 tag coded by pAX100
# B4: CXCR20020 (bispecific antibody)
# chain: EVQLVESGGGLVQAGESLRLSCAASGSTFDFKVMGWYRQPPGKQREGVAAIRLSGNMHYAESVKGRFTISKANAKNTVYLQMNSLRPEDTAVYYCKVNIRGQDYWGQGTQVTVSSGGGGSGGGGSGGGGSGGGGSGGGGSGGGGSGGGGSEVQLVESGGGLVQAGGSLRLSCAASGRTFSDYAMGWFRQAPGKEREFVAAITWNGGRVFYTASVKGRFTISRDNAKNTMYLQMNSLKPEDTAVYYCAADKDRRTDYLGHPVAYWGQGTQVTVSS
# notes: Biparatopic: two VHH joined by a GlySer linker; also called 127D1-35GS-163D2; 127D1-163D2; not shown: C-terminal c-myc tag and His6 tag coded by pAX100
# B5: CXCR20035 (other)
# chain: EVQLVESGGGLVQAGGSLTLSCAVSGSTFRINTMGWYRRAPGKQRELVAARDRGGYINYVDSVKGRFTVSRDNAKPTMYLQMNSLKPEDTAVYYCHAGTQDRTGRNFDRWGQGTQVTVSSGGGGSGGGGSGGGGSGGGGSGGGGSGGGGSGGGGSEVQLVESGGGLVQPGGSLRLSCVASGRIFSSNAMGWFRQAPGKEREFVAAITWRSGGSAYYADSAKGRFTISRDNAKNTVYLQMNSLKPEDTAVYYCAAGGSSWLSFPPDYWGQGTQVTVSS
# notes: Biparatopic: two VHH joined by a GlySer linker; also called 54B12-35GS-163E3; 54B12-163E3; not shown: C-terminal c-myc tag and His6 tag coded by pAX100
# B6: CXCR20059 (VHH)
# VHH: EVQLLESGGGLVQPGGSLRLSCAASGSILTINAMGWYRQAPGKQRELVVRRTRGGSTTYQDSVKGRFTISADISKKTMYLQMNSLRPEDTAVYYCLLDDRGGVYWGQGTLVTVSS
# B7: CXCR20063 (VHH)
# VHH: B6 VHH with K76N
# Molecular target: T1, Human CXCR2
# Experiment: cell-based or functional assay
FLIPR % inhibition of max [%],FLIPR IC50 (GRO-α induced calcium release) [nM],Binder
100,6.84,B1
100,12.3,B2
100,11.8,B3
100,6.98,B4
100,10.2,B5

# Molecular target: T2, Cynomolgus CXCR2
# Experiment: cell-based or functional assay
FLIPR % inhibition of max [%],FLIPR IC50 (GRO-α induced calcium release) [nM],Binder
100,13.7,B1
100,9.1,B2
100,9.47,B3
100,1.64,B4
100,8.72,B5

# Molecular target: T1, Human CXCR2
# Experiment: cell-based or functional assay
# Remark: another data set of the same source
[35S]GTPγS % inhibition of max (ENA-78) [%],[35S]GTPγS % inhibition of max (GRO-α) [%],[35S]GTPγS % inhibition of max (IL-8) [%],[35S]GTPγS IC50 (ENA-78) [nM],[35S]GTPγS IC50 (GRO-α) [nM],[35S]GTPγS IC50 (IL-8) [nM],Binder
100,100,100,1.66,1.38,1.13,B1
–,100,–,–,0.809,–,B2
–,100,–,–,0.995,–,B3
100,100,100,0.707,0.634,0.619,B4
100,100,100,1.17,0.844,0.717,B5

# Molecular target: T1, Human CXCR2
# Experiment: cell-based or functional assay
# Remark: another data set of the same source
"IC50 (M) at 5 nM GROα (inhibition of GRO-α, FIG. 2) [M]","IC50 (M) at 15 nM GROα (inhibition of GRO-α, FIG. 2) [M]","IC50 (M) at 150 nM GROα (inhibition of GRO-α, FIG. 2) [M]",Binder
6.53e-10,1.98e-09,6.71e-08,B2

# Molecular target: T1, Human CXCR2
# Experiment: cell-based or functional assay
# Remark: another data set of the same source
Human Chemotaxis IC50 (rhGROα) [nM],Human WBSC IC50 (rhGROα) [nM],Binder
0.16,0.445,B1
0.14,0.165,B2
0.143,0.29,B3
0.143,0.17,B4
–,0.24,B5

# Molecular target: T2, Cynomolgus CXCR2
# Experiment: cell-based or functional assay
# Remark: another data set of the same source
row,Cynomologus WBSC IC50 (rhGROα) [nM],Binder
1,0.16,B1
2,0.26,B2
3,0.44,B3
4,0.12,B4
5,0.43,B5

# Molecular target: T1, Human CXCR2
# Experiment: cell-based or functional assay
# Remark: another data set of the same source
row,FLIPR hGro-α IC50 [nM],Binder
1,390,B6
2,6100,B7

# Molecular target: T2, Cynomolgus CXCR2
# Experiment: cell-based or functional assay
# Remark: another data set of the same source
row,FLIPR hGro-α IC50 [nM],Binder
1,19000,B6
2,24000,B7

# Molecular target: T1, Human CXCR2
# Experiment: FACS hGro-α competition
row,IC50 [nM],Binder
1,1.5,B6

# Molecular target: T2, Cynomolgus CXCR2
# Experiment: FACS hGro-α competition
row,IC50 [nM],Binder
1,19,B6
2,54,B7

# Molecular target: T1, Human CXCR2
# Experiment: FACS competition vs 3 nM FMAT-Blue Gro-α
# Experimental: (§1) Multivalent anti-CXCR2Nanobodies were titrated against 3 nM FMAT-Blue-labeled Gro-α in the FACS ligand competition assay on human and cynomolgus CXCR2 (Table 14). On human CXCR2, blocking potencies range between double digit nM and sub-nM whereas on cynomolgus CXCR2, they range between single and double digit nM.
% inhibition of max [%],IC50 [nM],Binder
99.7,1.59,B1
99.5,0.9,B2
100,0.8,B3
100,0.99,B4
99,1,B5

# Molecular target: T2, Cynomolgus CXCR2
# Experiment: FACS competition vs 3 nM FMAT-Blue Gro-α
# Experimental: as §1
% inhibition of max [%],IC50 [nM],Binder
98.5,3.9,B1
99,1.82,B2
99,2.55,B3
98.5,1.78,B4
99,3.23,B5

# — patent US20130330346A1 (Novartis, published 2013)
